Measured values reported in US20100310640A1.

Legend:
Conditions in all cases: remark: other sources report otherwise
HLA-DR DRB1*0301 (human) [1] = target: T1, HLA-DR DRB1*0301 (human); experiment: radioligand inhibition, purified HLA-DR
T1 chain 1: not shown
T1 chain 2: not shown

HLA-DR DRB1*0701 (human) [2] = target: T2, HLA-DR DRB1*0701 (human); experiment: radioligand inhibition, purified HLA-DR
T2 chain 1: not shown
T2 chain 2: not shown

HLA-DR DRB1*0405 (human) [3] = target: T3, HLA-DR DRB1*0405 (human); experiment: radioligand inhibition, purified HLA-DR
T3 chain 1: not shown
T3 chain 2: not shown

HLA-DR DRB1*0101 (human) [4] = target: T4, HLA-DR DRB1*0101 (human); experiment: radioligand inhibition, purified HLA-DR
T4 chain 1: not shown
T4 chain 2: not shown

HLA-DR DRB5*0101 (human) [5] = target: T5, HLA-DR DRB5*0101 (human); experiment: radioligand inhibition, purified HLA-DR
T5 chain 1: not shown
T5 chain 2: not shown

HLA-DR DRB1*1302 (human) [6] = target: T6, HLA-DR DRB1*1302 (human); experiment: radioligand inhibition, purified HLA-DR
T6 chain 1: not shown
T6 chain 2: not shown

HLA-DR DRB1*0404 (human) [7] = target: T7, HLA-DR DRB1*0404 (human); experiment: radioligand inhibition, purified HLA-DR
T7 chain 1: not shown
T7 chain 2: not shown

HLA-DR DRB1*0401 (human) [8] = target: T8, HLA-DR DRB1*0401 (human); experiment: radioligand inhibition, purified HLA-DR
T8 chain 1: not shown
T8 chain 2: not shown

HLA-DR DRB1*1101 (human) [9] = target: T9, HLA-DR DRB1*1101 (human); experiment: radioligand inhibition, purified HLA-DR
T9 chain 1: not shown
T9 chain 2: not shown

HLA-DR DRB4*0101 (human) [10] = target: T10, HLA-DR DRB4*0101 (human); experiment: radioligand inhibition, purified HLA-DR
T10 chain 1: not shown
T10 chain 2: not shown

HLA-DR DRB1*0901 (human) = target: T11, HLA-DR DRB1*0901 (human); experiment: radioligand inhibition, purified HLA-DR
T11 chain 1: not shown
T11 chain 2: not shown

HLA-DR DRB1*0802 (human) = target: T12, HLA-DR DRB1*0802 (human); experiment: radioligand inhibition, purified HLA-DR
T12 chain 1: not shown
T12 chain 2: not shown

HLA-DR DRB1*1201 (human) = target: T13, HLA-DR DRB1*1201 (human); experiment: radioligand inhibition, purified HLA-DR
T13 chain 1: not shown
T13 chain 2: not shown

HLA-DR DRB4*0101 (human) [11] = target: T10, HLA-DR DRB4*0101 (human); experiment: radiolabeled-peptide inhibition, purified HLA-DR
HLA-DR DRB1*0405 (human) [12] = target: T3, HLA-DR DRB1*0405 (human); experiment: radiolabeled-peptide inhibition, purified HLA-DR
HLA-DR DRB1*0101 (human) [13] = target: T4, HLA-DR DRB1*0101 (human); experiment: radiolabeled-peptide inhibition, purified HLA-DR
HLA-DR DRB5*0101 (human) [14] = target: T5, HLA-DR DRB5*0101 (human); experiment: radiolabeled-peptide inhibition, purified HLA-DR
HLA-DR DRB1*1302 (human) [15] = target: T6, HLA-DR DRB1*1302 (human); experiment: radiolabeled-peptide inhibition, purified HLA-DR
HLA-DR DRB1*0401 (human) [16] = target: T8, HLA-DR DRB1*0401 (human); experiment: radiolabeled-peptide inhibition, purified HLA-DR
HLA-DR DRB1*1101 (human) [17] = target: T9, HLA-DR DRB1*1101 (human); experiment: radiolabeled-peptide inhibition, purified HLA-DR
HLA-DR DRB1*0701 (human) [18] = target: T2, HLA-DR DRB1*0701 (human); experiment: radiolabeled-peptide inhibition, purified HLA-DR
HLA-DR DRB1*0404 (human) [19] = target: T7, HLA-DR DRB1*0404 (human); experiment: radiolabeled-peptide inhibition, purified HLA-DR
HLA-DR DRB1*0301 (human) [20] = target: T1, HLA-DR DRB1*0301 (human); experiment: radiolabeled-peptide inhibition, purified HLA-DR

ELAVFREKVTEQHRQ [Peptide 9019.0018]
IC50 (HLA-DR DRB1*0301 (human) [1]): 8.62 µM

TEILKGGVLIQRNPQ [Her2/neu.146]
IC50 (HLA-DR DRB1*0701 (human) [2]): 2.49 µM
IC50 (HLA-DR DRB1*0405 (human) [3]): 0.76 µM
IC50 (HLA-DR DRB1*0101 (human) [4]): 0.011 µM
IC50 (HLA-DR DRB5*0101 (human) [5]): 1.88 µM
IC50 (HLA-DR DRB1*1302 (human) [6]): 0.343 µM
IC50 (HLA-DR DRB1*0404 (human) [7]): 0.032 µM
IC50 (HLA-DR DRB1*0401 (human) [8]): 0.04 µM
IC50 (HLA-DR DRB1*1101 (human) [9]): 0.692 µM

HNQVRQVPLQRLRIV [Her/neu.88]
IC50 (HLA-DR DRB1*0701 (human) [2]): 0.08 µM
IC50 (HLA-DR DRB4*0101 (human) [10]): 0.018 µM
IC50 (HLA-DR DRB1*0901 (human)): 6.94 µM
IC50 (HLA-DR DRB1*0405 (human) [3]): 1.3 µM
IC50 (HLA-DR DRB1*1302 (human) [6]): 0.27 µM
IC50 (HLA-DR DRB1*0404 (human) [7]): 0.078 µM
IC50 (HLA-DR DRB1*0401 (human) [8]): 0.84 µM
IC50 (HLA-DR DRB1*1101 (human) [9]): 0.021 µM
IC50 (HLA-DR DRB1*0802 (human)): 0.009 µM
IC50 (HLA-DR DRB1*1201 (human)): 0.042 µM

FRELVSEFSRMARDP [Peptide 9019.0096]
IC50 (HLA-DR DRB1*0701 (human) [2]): 5.05 µM
IC50 (HLA-DR DRB5*0101 (human) [5]): 0.38 µM
IC50 (HLA-DR DRB1*0404 (human) [7]): 0.051 µM
IC50 (HLA-DR DRB1*0401 (human) [8]): 0.022 µM
IC50 (HLA-DR DRB1*1101 (human) [9]): 0.381 µM

ITGYLYISAWPDSLP [9019.0050]
IC50 (HLA-DR DRB4*0101 (human) [11]): 0.27 µM
IC50 (HLA-DR DRB1*0405 (human) [12]): 0.0085 µM
IC50 (HLA-DR DRB1*0101 (human) [13]): 0.096 µM
IC50 (HLA-DR DRB5*0101 (human) [14]): 0.067 µM
IC50 (HLA-DR DRB1*1302 (human) [15]): 0.751 µM
IC50 (HLA-DR DRB1*0401 (human) [16]): 0.243 µM
IC50 (HLA-DR DRB1*1101 (human) [17]): 2.57 µM

TAKLTIESTPFNVAE [CEA.33 peptide 9019.0106]
IC50 (HLA-DR DRB4*0101 (human) [10]): 0.053 µM
IC50 (HLA-DR DRB1*1302 (human) [6]): 0.035 µM
IC50 (HLA-DR DRB1*0404 (human) [7]): 0.041 µM
IC50 (HLA-DR DRB1*1201 (human)): 2.31 µM

PESFDGDPASNTAPL [9019.0048]
IC50 (HLA-DR DRB1*0701 (human) [18]): 2.82 µM
IC50 (HLA-DR DRB1*1302 (human) [15]): 3.91 µM
IC50 (HLA-DR DRB1*0404 (human) [19]): 9.02 µM
IC50 (HLA-DR DRB1*1101 (human) [17]): 12.6 µM
IC50 (HLA-DR DRB1*0301 (human) [20]): 0.989 µM

SITVSASGTSPGLSA [CEA.671 peptide 9919.0143]
IC50 (HLA-DR DRB1*0701 (human) [2]): 1.56 µM
IC50 (HLA-DR DRB1*0405 (human) [3]): 3.57 µM
IC50 (HLA-DR DRB1*0101 (human) [4]): 2.81 µM
IC50 (HLA-DR DRB5*0101 (human) [5]): 15.1 µM
IC50 (HLA-DR DRB1*1302 (human) [6]): 0.592 µM
IC50 (HLA-DR DRB1*0404 (human) [7]): 0.011 µM
IC50 (HLA-DR DRB1*0401 (human) [8]): 0.075 µM
IC50 (HLA-DR DRB1*1101 (human) [9]): 3.32 µM

LKSGMKELAVFREKV [Peptide 9019.0185]
IC50 (HLA-DR DRB1*0405 (human) [3]): 0.034 µM
IC50 (HLA-DR DRB1*0802 (human)): 0.26 µM

GMSYLEDVRLVHRDL [9019.0002]
IC50 (HLA-DR DRB1*0701 (human) [18]): 5.41 µM
IC50 (HLA-DR DRB4*0101 (human) [11]): 2.54 µM
IC50 (HLA-DR DRB1*0405 (human) [12]): 4.32 µM
IC50 (HLA-DR DRB1*1302 (human) [15]): 3.79 µM
IC50 (HLA-DR DRB1*1101 (human) [17]): 0.244 µM
IC50 (HLA-DR DRB1*0301 (human) [20]): 0.027 µM

APTIRGDPECHLFYN [Peptide 9019.0022]
IC50 (HLA-DR DRB1*0701 (human) [2]): 16.8 µM
IC50 (HLA-DR DRB4*0101 (human) [10]): 2.51 µM
IC50 (HLA-DR DRB1*0101 (human) [4]): 4.03 µM
IC50 (HLA-DR DRB1*1302 (human) [6]): 1.67 µM
IC50 (HLA-DR DRB1*0401 (human) [8]): 1.64 µM
IC50 (HLA-DR DRB1*0301 (human) [1]): 0.031 µM
IC50 (HLA-DR DRB1*1201 (human)): 16.9 µM

LQGLPREYVNARHCL [9019.0064]
IC50 (HLA-DR DRB1*0701 (human) [18]): 1.9 µM
IC50 (HLA-DR DRB4*0101 (human) [11]): 2.55 µM
IC50 (HLA-DR DRB1*0101 (human) [13]): 0.354 µM
IC50 (HLA-DR DRB1*1302 (human) [15]): 0.67 µM
IC50 (HLA-DR DRB1*0401 (human) [16]): 0.201 µM
IC50 (HLA-DR DRB1*0301 (human) [20]): 9 µM

RWCIPWQRLLLTASL [CEA.10 peptide 9019.0104]
IC50 (HLA-DR DRB1*1302 (human) [6]): 2.33 µM
IC50 (HLA-DR DRB1*0301 (human) [1]): 7.86 µM
IC50 (HLA-DR DRB1*0802 (human)): 0.263 µM
IC50 (HLA-DR DRB1*1201 (human)): 1.56 µM

HRDLAARNVLVKSPN [9019.0085]
IC50 (HLA-DR DRB1*0405 (human) [12]): 11.2 µM
IC50 (HLA-DR DRB1*0101 (human) [13]): 0.158 µM
IC50 (HLA-DR DRB1*1302 (human) [15]): 0.116 µM
IC50 (HLA-DR DRB1*0401 (human) [16]): 0.401 µM

ILLVVVLGVVFGILI [9019.0068]
IC50 (HLA-DR DRB1*0701 (human) [18]): 0.78 µM
IC50 (HLA-DR DRB4*0101 (human) [11]): 11 µM
IC50 (HLA-DR DRB1*0405 (human) [12]): 0.376 µM
IC50 (HLA-DR DRB1*1302 (human) [15]): 0.478 µM
IC50 (HLA-DR DRB1*0404 (human) [19]): 3.53 µM
IC50 (HLA-DR DRB1*0401 (human) [16]): 0.635 µM
IC50 (HLA-DR DRB1*1101 (human) [17]): 2.46 µM
